Experimental data taken from patent US20240189352A1 (published 2024).

What was measured:
Experiment in all cases: cytokine release
[1] = molecular target: T1, RAC2 P29L, position 4 replaced by alanine peptide on HLA-A*02:01 (human)
T1 peptide: FLGAYIPTV

[2] = molecular target: T2, RAC2 P29L, position 2 replaced by alanine peptide on HLA-A*02:01 (human)
T2 peptide: FAGEYIPTV

[3] = molecular target: T3, RAC1 P29S peptide on HLA-A*02:01 (human)
T3 peptide: FSGEYIPTV

[4] = molecular target: T4, RAC2 P29L peptide on HLA-A*02:01 (human)
T4 peptide: FLGEYIPTV

[5] = molecular target: T5, RAC2 P29L, position 1 replaced by alanine peptide on HLA-A*02:01 (human)
T5 peptide: ALGEYIPTV

[6] = molecular target: T6, RAC2 P29L, position 3 replaced by alanine peptide on HLA-A*02:01 (human)
T6 peptide: FLAEYIPTV

[7] = molecular target: T7, RAC2 P29L, position 6 replaced by alanine peptide on HLA-A*02:01 (human)
T7 peptide: FLGEYAPTV

Measured: binding result

B1: RAC2-T001 (TCR, V domains shown)
Valpha: GENVEQHPSTLSVQEGDSAVIKCTYSDSASNYFPWYKQELGKGPQLIIDIRSNVGEKKDQRIAVTLNKTAKHFSLHITETQPEDSAVYFCAASMGNAGNMLTFGGGTRLMVKP
Vbeta: EPEVTQTPSHQVTQMGQEVILRCVPISNHLYFYWYRQILGQKVEFLVSFYNNEISEKSEIFDDQFSVERPDGSNFTLKIRSTKLEDSAMYFCASSETSGASYEQYFGPGTRLTVT
recognises: [1] | [2] | [3] | [4] | [5] | [6]

B2: RAC2-T002 (TCR, V domains shown)
Valpha: AQSVTQLGSHVSVSEGALVLLRCNYSSSVPPYLFWYVQYPNQGLQLLLKYTTGATLVKGINGFEAEFKKSETSFHLTKPSAHMSDAAEYFCAVGANNLFFGTGTRLTVIP
Vbeta: EPEVTQTPSHQVTQMGQEVILRCVPISNHLYFYWYRQILGQKVEFLVSFYNNEISEKSEIFDDQFSVERPDGSNFTLKIRSTKLEDSAMYFCASSEWRGSSYNEQFFGPGTRLTVL
recognises: [2] | [3] | [4] | [7] | [5] | [6]
